Legend:
[1] = target: VE-cadherin (VEC) of VEC-positive cells (VEC-null line reconstituted with VEC wild type cDNA) (UniProt P33151); experiment: co-IP
[2] = target: β-catenin (endogenous) (mouse (endogenous in mouse ECs)) (UniProt Q02248); experiment: co-IP
Sequence of UniProt Q02248 (Q02248 whole entry): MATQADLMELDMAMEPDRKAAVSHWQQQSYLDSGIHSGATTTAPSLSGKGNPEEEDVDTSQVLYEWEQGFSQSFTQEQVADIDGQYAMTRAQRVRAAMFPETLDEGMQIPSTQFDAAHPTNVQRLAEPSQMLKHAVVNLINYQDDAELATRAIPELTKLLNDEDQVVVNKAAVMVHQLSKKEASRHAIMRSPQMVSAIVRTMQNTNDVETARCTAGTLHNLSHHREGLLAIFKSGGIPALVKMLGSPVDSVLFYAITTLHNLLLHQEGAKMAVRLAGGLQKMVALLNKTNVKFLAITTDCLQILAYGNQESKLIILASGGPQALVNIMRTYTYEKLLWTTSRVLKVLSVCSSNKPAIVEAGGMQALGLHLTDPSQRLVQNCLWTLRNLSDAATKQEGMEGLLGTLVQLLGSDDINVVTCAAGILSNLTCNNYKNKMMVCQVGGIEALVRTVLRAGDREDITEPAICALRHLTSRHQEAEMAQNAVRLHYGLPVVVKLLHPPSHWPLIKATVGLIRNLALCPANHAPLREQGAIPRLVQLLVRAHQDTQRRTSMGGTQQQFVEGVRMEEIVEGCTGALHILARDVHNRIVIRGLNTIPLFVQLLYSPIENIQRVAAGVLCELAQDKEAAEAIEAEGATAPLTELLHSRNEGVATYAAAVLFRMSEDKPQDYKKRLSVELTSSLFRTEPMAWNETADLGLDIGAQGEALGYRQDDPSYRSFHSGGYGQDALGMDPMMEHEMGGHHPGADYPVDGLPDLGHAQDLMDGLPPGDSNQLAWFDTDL

Sequence of UniProt P33151 (P33151 48-784): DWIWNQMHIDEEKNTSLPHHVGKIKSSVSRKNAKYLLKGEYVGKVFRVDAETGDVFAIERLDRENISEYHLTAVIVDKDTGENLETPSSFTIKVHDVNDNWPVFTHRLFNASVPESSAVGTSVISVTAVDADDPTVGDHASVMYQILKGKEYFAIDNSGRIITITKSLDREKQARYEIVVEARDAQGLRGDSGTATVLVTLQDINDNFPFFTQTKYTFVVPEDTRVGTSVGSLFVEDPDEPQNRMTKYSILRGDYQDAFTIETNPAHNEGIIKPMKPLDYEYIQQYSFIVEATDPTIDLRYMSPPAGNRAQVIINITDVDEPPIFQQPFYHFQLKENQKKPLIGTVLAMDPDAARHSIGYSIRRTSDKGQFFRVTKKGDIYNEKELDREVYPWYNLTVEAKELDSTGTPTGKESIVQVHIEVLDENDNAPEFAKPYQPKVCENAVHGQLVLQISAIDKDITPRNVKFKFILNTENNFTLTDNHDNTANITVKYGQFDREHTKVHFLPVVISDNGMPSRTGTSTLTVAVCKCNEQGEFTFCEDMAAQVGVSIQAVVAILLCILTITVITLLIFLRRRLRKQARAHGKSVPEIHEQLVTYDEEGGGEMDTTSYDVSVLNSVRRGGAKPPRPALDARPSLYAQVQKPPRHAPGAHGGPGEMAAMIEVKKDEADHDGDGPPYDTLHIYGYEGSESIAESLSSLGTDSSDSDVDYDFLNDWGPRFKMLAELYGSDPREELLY

TAT-M10 (Ezh2 peptide M10 synthesized in tandem with TAT of human immunodeficiency virus) (from UniProt Q61188 454-473)
percent reduction of VEC/Ezh2 association [1]: 45.3%

TAT-P30 (Ezh2 peptide P30 synthesized in tandem with TAT of human immunodeficiency virus) (from UniProt Q61188 585-604)
percent reduction of VEC/Ezh2 association [2]: 28%

Source: PMC5771688
